Reference: US20050239704, “Compositions and methods for affecting virulence determinants in bacteria” (published 2005)

Molecular target: SarR (Staphylococcus aureus, UniProt Q2FEJ8 SEQ:1-115)
Assay: footprint; protected region nt 81-108 within the 109-bp fragment
Conditions: tags: untagged, pET11b expressed in E. coli BL21(DE3)pLysS; chain copies: 2 (inferred)

Chain of SarR (Q2FEJ8 whole entry, the tested form may be a part): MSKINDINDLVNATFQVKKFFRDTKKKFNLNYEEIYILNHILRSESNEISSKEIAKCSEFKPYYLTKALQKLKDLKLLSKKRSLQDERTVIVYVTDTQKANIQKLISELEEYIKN

B1: sarA P2 protected region (nt 81-108) (dsDNA)
DNA 1: TAAATTAATGTTATTTTTTAATAATTTA
DNA 2: TAAATTATTAAAAAATAACATTAATTTA
B1: binds.
